Series [1] in a line: Insulin Tolerance Test (ITT). It is filed as in vivo, mouse. The note with it: for Area Under the Curve (AUC) in ITT: vs control. On the procedure:
Animals. All animal procedures were approved by Institutional Animal Care and Use Committee (IACUC) at the University of California San Francisco and were conducted in accordance with the National Institutes of Health Guide for the Care and Use of laboratory Animals. C57BL/6NHsd (Envigo RMS, LLC) male littermates at 8-10 weeks of age, weighing ˜20-28 grams, were used in all the studies described. The mice were housed in a room that was temperature (22-25 C) and light controlled (12-h: 12-h light/dark cycle starting at 7 AM. The mice were fed with chow diet with 9% fat (PicoLab mouse Diet 20 (#5058), Lab Supply, Fortworth Texas, USA) for the duration of housing at the UCSF animal care facility.
1. mAb administered as a single dose, 15 hours prior to GTT and 21 hours prior to ITT. 2. mAb administered as a double dose, 15 hours prior to GTT and 21 hours prior to ITT plus a second mAb dose 2 hours prior to GTT and ITT. 3. mAb as a single dose 6 hours prior to GTT and ITT. 4. mAb single dose 2 hours prior to GTT and ITT.
Extendin 9-39 Peptide (MedChemExpress, Cat. No.: HY-P0264) were dosed at 1.0 or 0.23 mg/kg at three different administration regimen groups. 1. Extendin administered as a single dose, 21 hours prior to ITT. 2. Extendin administered as a double dose, 21 hours prior to ITT plus a second Extendin dose 2 hours prior to ITT. 3. mAb as a single dose 6 hours prior to ITT.
An Insulin Tolerance Test (ITT) was conducted to assess two different anti-GLP1 mAbs (agonist and antagonist) effect on insulin sensitivity following acute insulin administration. 8 or 10-week old male mice were fasted for 6 hours and body weight was recorded before and after fasting. To avoid circadian variations in mouse blood glucose levels this testing was performed at fixed times. Blood samples were collected by tail nick and baseline glucose was measured prior to insulin injection. Mice were injected, i.p., with a single bolus (0.75 U/Kg body weight) of human insulin (Novolin, Novo Nordisk) and blood glucose levels were measured at 15, 30, 45, 60 and 120 minutes after insulin injection. Blood glucose levels were monitored using a OneTouch Ultra 2 glucose monitor (LifeScan, Inc.).

Series [2] concerns the target T1, GLP-1R (Homo sapiens, UniProt P43220). Nature of the series: cAMP assays (agonist and antagonist mode), GLP-1R over-expressing CHO-K1 cells. Type of series: cell-based. Also on record: host or cells: CHO-K1. The note with it: pre-incubation with fixed concentration of IgG (100 nM), then GLP-1 7-36 titration. As to the method:
CAMP assays. GLP-1R IgG clones were tested for their potential effects on GLP-1R signaling by performing cAMP assays obtained from Eurofins DiscoverXX. The technology involved in detecting cAMP levels is a no wash gain-of-signal competitive immunoassay based on Enzyme Fragment Complementation technology. Experiments were designed to test for either agonist or antagonist activity of the IgG clones. To test for agonist activity of the IgGs, cells were stimulated with IgG incubating for 30 min at 37° C. […] Intracellular CAMP levels were detected by following the assay kit instructions.
Target sequence in this assay (P43220 24-463): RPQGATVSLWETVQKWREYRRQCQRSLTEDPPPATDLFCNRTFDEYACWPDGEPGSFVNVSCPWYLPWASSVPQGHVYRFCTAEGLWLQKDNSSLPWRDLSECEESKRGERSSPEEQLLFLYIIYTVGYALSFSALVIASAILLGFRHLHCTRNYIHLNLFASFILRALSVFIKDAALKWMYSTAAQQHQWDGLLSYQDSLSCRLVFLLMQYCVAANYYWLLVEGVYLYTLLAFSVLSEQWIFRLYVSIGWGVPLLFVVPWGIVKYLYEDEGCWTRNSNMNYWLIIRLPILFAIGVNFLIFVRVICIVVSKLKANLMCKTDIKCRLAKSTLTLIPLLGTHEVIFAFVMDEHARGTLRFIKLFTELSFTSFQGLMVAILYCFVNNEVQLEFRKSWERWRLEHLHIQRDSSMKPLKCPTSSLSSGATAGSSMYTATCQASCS

Series [3] has as its target T1, GLP-1R. Description: Ec50. Also on record: The full length human GLP-1R gene (UniProt-P43220) with an N-terminal FLAG tag and C-terminal GFP tag; expressed in transfected cells. The source says: Table printed on a drawing sheet, FIG. 16A
Series [4] deals with T1, GLP-1R. Nature of the series: Beta arrestin recruitment assay, GLP-1R overexpressing CHO-K1 cells. Type of series: cell-based. Also on record: host or cells: CHO-K1. The conditions noted are these: 100 nM IgG pre-incubated 1 hr. On the procedure:
Beta arrestin recruitment assy. β-arrestin recruitment assay was obtained from Eurofins DiscoverXX (Cat #93-0300E2) that utilized untagged GLP-1R overexpressing CHO-K1 cells. […] Expanded cells were seeded into 96 well plates at 5,000 cells/well, and the experiment was performed 48 hours after plating cells. […] Add 22.5 uL of detection solution to each well, tap gently and briefly spin down. Then incubate plates at RT for 1 hour in the dark. The plates were then read by a Chemiluminescence plate reader, Molecular Devices SpectraMax® M5, and output relative light units (RLU) data were analyzed using GraphPad Prism™.
In general terms: Arrestin recruitment assays detect the binding of arrestin to an activated receptor.
Target sequence in this assay (P43220 24-463): as above

The nature of series [5]: Rat PK study, ELISA for human IgG in plasma. It is filed as in vivo. The note with it: 10 mg/kg IV, 2-week PK study, beta phase. On the procedure:
The rat PK study was done at Charles River Laboratories, One Innovation Dr, 3 Biotech, Worcester, MA 01605. 5 Male Sprague-Dawley rats per group were allowed to acclimate after receiving at test facility for a minimum of 3 days before dosing. […] Serial blood samples were collected via jugular vein cannula with ˜250 ul volume at each time point: pre-dose, 0.0833, 0.25, 0.5, 1, 2, 4, 8, 24, 48, 72, 96, 168, 240 and 336 hours post dose. Blood samples were collected into K2EDTA tubes and stored on wet ice until processed to plasma by centrifugation (3500 rpm for 10 minutes at 5° C.) within 30 minutes of collection. Plasma samples were then transferred into an appropriate tube containing DPP-4 (3.3 μL for 100 μL of plasma) and frozen on dry ice. To measure the human IgG in rat plasma samples, sheep anti-Human IgG (1 mg/mL) was used as coating reagent) (The binding site, Lot No. AU003.M), and goat anti-Human IgG, HRP (H&L) (1 mg/mL) was used as detection reagent) (Bethyl, cat #A80-319P) in an ELISA assay. Stock solutions of human IgG standards and QCs were prepared by spiking human IgG into rat plasma. […] The semi-logarithmic sigmoid calibration curve was obtained by plotting the absorbance response against concentration. Concentrations of analyte in the test samples were determined by computer interpolation from the plot of the calibration curve.
In general terms: ELISA stands for enzyme-linked immunosorbent assay.

The subject of series [6] is CHO-parent cells. Nature of the series: Flow cytometry binding assay on CHO-parent cells (background binding). Also on record: species or system Chinese Hamster. On the procedure: GLP-1R IgG clones were tested in a binding assay coupled to flow cytometry analysis as follows: FLAG-GLP-1R-GFP expressing CHO cells (CHO-GLP-1R) and CHO-parent cells were incubated with 100 nM IgG for 1 h on ice, washed three times and incubated with Alexa 647 conjugated goat-anti-human antibody (1:200) (Jackson ImmunoResearch Laboratories, 109-605-044) for 30 min on ice, followed by three washes, centrifuging to pellet the cells between each washing step. All incubations and washes were in buffer containing PBS+1% BSA. For titrations, IgG was serially diluted 1:3 starting from 100 nM down to 0.046 nM. Cells were analyzed by flow cytometry and hits (a hit is an IgG that specifically binds to CHO-GLP-1R) were identified by measuring the GFP signal against the Alexa 647 signal. Flow cytometry data of binding assays with 100 nM IgG are presented as dot plots. Analyses of binding assays with IgG titrations are presented as binding curves plotting IgG concentrations against MFI (mean fluorescence intensity).
In general terms: Flow cytometry measures light scatter and fluorescence of single cells or particles in a stream.

B1: GLP1R-3: antagonist GLP-1R IgG with GLP-1 motif in CDRH3 (SEQ ID NO 20) (antibody)
heavy: QVQLVESGGGVVQPGRSLRLSCAASGFTFSSYGMHWVRQAPGKGLEWVSFISYDESNKYYADSVKGRFTISRDNSKNTLYLQMNSLRAEDTAVYYCAKHMSMQEGAVTGEGQAAKEFIAWLVKGRVRADLVGDAFDVWGQGTLVTVSSASTKGPSVFPLAPCSRSTSESTAALGCLVKDYFPEPVTVSWNSGALTSGVHTFPAVLQSSGLYSLSSVVTVPSSNFGTQTYTCNVDHKPSNTKVDKTVERKCCVECPPCPAPPVAGPSVFLFPPKPKDTLMISRTPEVTCVVVDVSHEDPEVQFNWYVDGVEVHNAKTKPREEQFNSTFRVVSVLTVVHQDWLNGKEYKCKVSNKGLPAPIEKTISKTKGQPREPQVYTLPPSREEMTKNQVSLTCLVKGFYPSDIAVEWESNGQPENNYKTTPPMLDSDGSFFLYSKLTVDKSRWQQGNVFSCSVMHEALHNHYTQKSLSLSPGK
light: QSVLTQPPSVSAAPGQKVTISCSGSSSNIADNYVSWYQQLPGTAPKLLIYDNNKRPSGIPDRFSGSKSGTSATLGITGLQTGDEADYYCGTWDNYLGAGVFGGGTKLTVLGQPKAAPSVTLFPPSSEELQANKATLVCLISDFYPGAVTVAWKADSSPVKAGVETTTPSKQSNNKYAASSYLSLTPEQWKSHRSYSCQVTHEGSTVEKTVAPTECS
In the case of B1, the “Area Under the Curve (AUC) in ITT” value in series [1] (19+2 hour, GLP1R-3 20 mg/kg, Exendin 1 mg/kg) was “significant (p<0.0001)”; in series [1] (single 6 hour treatment, GLP1R-3 20 mg/kg, Exendin 1.0 and 0.23 mg/kg), “significantly (p<0.05) stabilizes”; in series [1] (single 6 hour treatment, comparator antibody experiment, 20 mg/kg) it was “significantly (p<0.05) stabilized”. The “blood glucose after insulin challenge” value in series [1] (19+2 hours dosing regimen, C57BL/6NHsd mice) is reported as “significantly stabilizes a higher blood glucose”; in series [1] (single 6 hour dosing regimen, comparator antibody experiment, 20 mg/kg), “significantly stabilized a higher blood glucose”; in series [1] (single 6 hour dosing regimen, compared to Exendin 9-39 or control), “significantly stabilizes a higher blood glucose”. For the same molecule, in series [2], the “antagonist activity: effect on GLP-1 7-36-induced GLP-1R cAMP signaling” value is given as “clear dose-dependent inhibition of the CAMP signal”. In series [3], this molecule displayed an EC50 of 3.94 nM. Besides, the “effect on GLP-1 7-36 induced β-arrestin recruitment” value in series [4] was “inhibition of GLP-1 7-36 peptide-induced beta arrestin recruitment”. The molecule further registered an in vivo half-life in series [5] of approximately 1 week. The “Median RL1-H of Parent Singlets” value in series [6] (Table 6C, GLP1R-221 variants) is 234; in series [6] (Table 6D, GLP1R-222 variants) it was 302.5. Moreover, the “Bmax CHO Parent” value in series [6] (Table 6E, IgG titration) amounted to 268.

As a reminder, the EC50 is the concentration giving half of the maximal effect.

(Values after patent publication US12391762B2, “Methods and compositions relating to GLP1R variants” (Twist Bioscience Corporation, priority 2020, dated 2025).)
